# Source: patent publication US20070191278A1 (AVIDEX, published 2007)
# B1: soluble CD8αα receptor (residues 1-120 of the mature human CD8α protein, expressed in E. coli and refolded as a homodimer) (receptor)
# chain: not shown
# notes: also called sCD8αα; CD8 A
# Experiments:
# [1] = biological target: HLA-A2-pol (biotinylated HLA-A2 plus HIV-1 polymerase 476-484, immobilised on streptavidin) (human; HIV-1)
# [2] = biological target: HLA-A2-flu (biotinylated HLA-A2 plus Influenza matrix protein 58-66, immobilised on streptavidin) (human; Influenza); assay: SPR (BIAcore) equilibrium binding, immobilised HLA-A2-flu, 37 °C, mean ± range
binder,measurement,setting,value
B1,koff,[1],18 s⁻¹
same,kon,[1],≥ 140000 M⁻¹ s⁻¹
same,Kd,[2],629 µM
